This passage reports Kd, koff and kon results from patent CN113667016A (PUMISI BIOTECHNOLOGY ZHUHAI CO LTD, dated 2021).

In the assay the target is S1-His (SARS-CoV-2, UniProt P0DTC2 16-685).

B1: 89C8 (antibody, V domains shown)
VH: QVQLVQSGAEVKKPGSSVKVSCKASGGTFSSYAISWVRQAPGQGLEWMGGIIPILGIANYAQKFQGRVTITADKSTSTAYMELSSLRSEDTAVYYCARGGLGFGELFRKTGYYFDYWGQGTLVTVSS
VL: EIVMTQSPATLSVSPGERATLSCRASQSVSSNLAWYQQKPGQAPRLLIYAASTRATAIPARFSGSGSGTEFTLTISSLQSEDFAVYFCQQYNKLPLTFGGGTKVDIKR
B1 displayed an equilibrium dissociation constant (Kd) of 7.6 nM, an off-rate (koff) of 0.000385 s⁻¹ and a kon of 50400 M⁻¹ s⁻¹.

For orientation: Kd means a measure of binding affinity in units of concentration. By koff is commonly meant the rate constant with which the complex falls apart. A low value points to slow dissociation. Usually kon stands for the rate constant with which the complex forms. Read a low kon as slow association.
